Laboratory results as given in patent publication US12441803B2, “Engineered CD25 polypeptides and uses thereof” (iBio, Inc., priority 2018, dated 2025).
Numbering of substitutions follows the chain as printed.

T1: CD25 (Homo sapiens, UniProt P01589)
T1 sequence (P01589 22-272): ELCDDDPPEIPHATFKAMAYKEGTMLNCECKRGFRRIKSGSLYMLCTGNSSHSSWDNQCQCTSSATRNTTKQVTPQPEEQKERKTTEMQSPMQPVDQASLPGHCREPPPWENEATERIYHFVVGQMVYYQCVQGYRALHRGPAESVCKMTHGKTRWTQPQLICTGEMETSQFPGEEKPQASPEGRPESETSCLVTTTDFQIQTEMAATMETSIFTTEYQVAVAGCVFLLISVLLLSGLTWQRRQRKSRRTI

B1: YU398-A11: anti-CD25 scFv clone, SEQ ID NO: 818 (protein, listed as Mus musculus)
scFv: PGRSLRLSCAASGFTFSSYGMHWVRQAPGKGLEWVAVISYDGSNKYYADSVKGRFTISRDNSKNTLYLQMNSLRAEDTAVYYCAKGQGDGMDVWGQGTTVTVSSCAKGQGDGMDVWYELTQPPSASGTPGQRVTISCSGSSSNVGSRTVSWFQQLPGTAPKLLIYSNNLRPSGVPDRFSGSKSGTSASLAISGLQSEDEADYYCAAWDDSLIGHVFGTGTKVTVVCAAWDDSLIGHVF
B2: YU389-A03: anti-CD25 scFv clone, SEQ ID NO: 730 (protein, listed as Mus musculus)
scFv: PSQTLSLTCTVSGGSISSGGYYWSWIRQHPGKGLEWIGYIYYSGSTYYNPSLKSRVTISVDTSKNQFSLKLSSVTAADTAVYYCARGNLWSGYYFWGQGTLVTVSSCARGNLWSGYYFWQSVLTQPPSVSAAPGQKVTISCSGSSSNIGNNFVSWYQQVPGTAPKLLTYDSTKRPAGIPDRFSGSKSGTSATLEIAGLQTGDEADYYCGSWDTNLSGYVFGTGTKVTVLCGSWDTNLSGYVF
B3: YU392-A09: anti-CD25 scFv clone, SEQ ID NO: 749 (protein, listed as Mus musculus)
scFv: PGATVKISCKVSGYTFTDYYMHWVQQAPGKGLEWMGLVDPEDGETIYAEKFQGRVTITADTSTDTAYMELSSLRSEDTAVYYCATEGRYGMDVWGQGTTVTVSSCATEGRYGMDVWQAVLTQPPSVSGTPGQRVTISCSGNNFNIGNNLVYWYQQLPGTAPKLLIYANDERPSGVPDRFSGSKSGTSASLAISGLRSEDDADYYCATWDDSLSGVVFGGGTKLTALCATWDDSLSGVVF
B4: YU401-G07: anti-CD25 scFv clone, SEQ ID NO: 831 (protein, listed as Mus musculus)
scFv: LGRSLRLSCAASGFTFSSYGMHWVRQAPGKGLEWVAVISYDGSNKYYADSVKGRFTISRDNSKNTLYLQMNSLRAEDTAVYYCAKGDVNYGMDVWGQGTTVTVSSCAKGDVNYGMDVWSYVLTQPPSVSVAPGQTARISCGGSNIGSKTVNWYRKKAGQAPVLVVYDGRDRPSGIPERFSGSNSGNAATLIISRVEVGDEADYYCQVWDTSGDLHWAFGGGTKLTVLCQVWDTSGDLHWAF
B5: YU392-B11: anti-CD25 scFv clone, SEQ ID NO: 750 (protein, listed as Mus musculus)
scFv: PGATVKISCKVSGYTFTDYYMHWVQQAPGKGLEWMGLVDPEDGETIYAEKFQGRVTITADTSTDTAYMELSSLRSEDTAVYYCAVEGGRAPGTYYYDSSGLAYWGQGTLVTVSSCAVEGGRAPGTYYYDSSGLAYWQAGLTQPPSASGTPGQRVTISCSGSSSNIGSNYVYWYQQLPGTAPKLLIYSNNQRPSGVPDRFSGSKSGTSASLAISGLRSEDEADYYCATWDDSLSGVVFGGGTKLTVLCATWDDSLSGVVF
B6: YU400-D09: anti-CD25 scFv clone, SEQ ID NO: 823 (protein, listed as Mus musculus)
scFv: PGSSVKVSCKASGGTFSSYAISWVRQAPGQGLEWMGGIIPIFGTANYAQKFQGRVTITADESTSTAYMELSSLRSEDTAVYYCARDFNPFSITIFEMDVWGQGTTVTVSSCARDFNPFSITIFEMDVWQSVLTQPPSVSAAPGQKVTISCSGSSSNIGNNYVSWYQQLPGTAPKLLIYDNNKRPSGIPDRFSGSKSGTSATLGITGLQTGDEADYYCGTWDSSLSALVFGGGTKLTVLCGTWDSSLSALVF
B7: YU397-D01: anti-CD25 scFv clone, SEQ ID NO: 817 (protein, listed as Mus musculus)
scFv: PSGTLSLTCAVSGGSISSSNWWSWVRQPPGKGLEWIGEIYHSGSTNYNPSLKSRVTISVDKSKNQFSLKLSSVTAADTAVYYCARARGGRYFDYWGQGTLVTVSSCARARGGRYFDYWDIVLTQSPSFLSASVGDRVTITCRASQGISTYLAWYQQKPGTAPKVLMYAASTLHSGVPSRFSGSGSGTEFTLTISSLQPEDFAIYYCQQLNGYPTTFGGGTRVEIKCQQLNGYPTTF
B8: YU400-B07: anti-CD25 scFv clone, SEQ ID NO: 822 (protein, listed as Mus musculus)
scFv: PGRSLRLSCAASGFTFSSYGMHWVRQAPGKGLEWVAVISYDGSNKYYADSVKGRFTISRDNSKNTLYLQMNSLRAEDTAVYYCAKGDVNYGMDVWGQGTTVTVSSCAKGDVNYGMDVWSYVLTQPPSVSVAPGKTARITCGGNNIGSKSVHWYQQKPGQAPVLVVYDDTDRPSGIPERFSGSNSGNTATLTISRVEAGDEADYYCQVWDSSSDLLWVFGGGTKLAVLCQVWDSSSDLLWVF
B9: YU403-G05: anti-CD25 scFv clone, SEQ ID NO: 835 (protein, listed as Mus musculus)
scFv: PSGDLSLTCDVSGGSISRSNWWIWVRQPPGKGLEWIGEIYHTGSTNYNPSLKRRVTISVDKSKNQFSLNLSSVTAADTAVYYCARGKGSYAFDIWGLGTMVTVSSCARGKGSYAFDIWVLTQPHSVSESPGKTVTISCTGSGGNIARNYVQWYQHRPGRAPSTVIYEDDRRPSGVPDRFSGSTDISSNSASLTISGLKTEDEADYYCQSYDGNNHMVFGGGTRVTVLCQSYDGNNHMVF
B10: YU390-A11: anti-CD25 scFv clone, SEQ ID NO: 736 (protein, listed as Mus musculus)
scFv: PGRSLRLSCAASGFTFSSYGMHWVRQAPGKGLEWVAVISYDGSNKYYADSVKGRFTISRDNSKNTLYLQMNSLRAEDTAVYYCAKELLEGAFDIWGQGTMVTVSSCAKELLEGAFDIWSYVLTQPPSLSVAPGQTARITCGGDNIETKSVHWYQQRPGQAPVLVVYDDDDRPSGIPERFSGSNSGNTATLTISRVEAGDEADYYCQVWDSSSGHREVFGGRTKPALLCQVWDSSSGHREVF
B11: YU390-B12: anti-CD25 scFv clone, SEQ ID NO: 738 (protein, listed as Mus musculus)
scFv: B10 scFv with R221G, P224L, A225T, L226V
B12: YU401-B01: anti-CD25 scFv clone, SEQ ID NO: 827 (protein, listed as Mus musculus)
scFv: PGSSVKVSCKASGGTFSSYAISWVRQAPGQGLEWMGGIIPIFGTANYAQKFQGRVTITADESTSTAYMELSSLRSEDTAVYYCAREMYYYYGMDVWGQGTTVTVSSCAREMYYYYGMDVWDIVMTQSPSSLSASVGDRVTITCRASQSIITYLNWYQQKPGKVPKLLIYAASSLQSGVPSRFSGSGSGTDFTLTISSLQPEDFATYYCQQSYSTPPTFGQGTKLEIKCQQSYSTPPTF

Molecular target: T1, CD25
Experiment: Binding of human IgG1 format antibodies to CD25 by Octet
Conditions: read-out: Biosensor Measured CD25 Affinity
Description: Thirty antibodies were selected for additional testing as full-length immunoglobulins. The heavy and light chain sequences were cloned into human immunoglobulin G (IgG1) format and expressed and purified.

| Molecule | Kd |
| --- | --- |
| B1 | 12.1 nM |
| B2 | 9.55 nM |
| B3 | 12.4 nM |
| B4 | 15.3 nM |
| B5 | 65.6 nM |
| B6 | 54.6 nM |
| B7 | 3.86 nM |
| B8 | 57.8 nM |
| B9 | 31.9 nM |
| B10 | 13.3 nM |
| B11 | 13.7 nM |
| B12 | 70.4 nM |
